The results in this text go back to patent US20190185537A1 (AstraZeneca / MedImmune, published 2019).

Sequences and labels used below:
T1: human glucose-dependent insulinotropic peptide (gastric inhibitory polypeptide) receptor (human) (UniProt P48546)
T1 sequence (looked up): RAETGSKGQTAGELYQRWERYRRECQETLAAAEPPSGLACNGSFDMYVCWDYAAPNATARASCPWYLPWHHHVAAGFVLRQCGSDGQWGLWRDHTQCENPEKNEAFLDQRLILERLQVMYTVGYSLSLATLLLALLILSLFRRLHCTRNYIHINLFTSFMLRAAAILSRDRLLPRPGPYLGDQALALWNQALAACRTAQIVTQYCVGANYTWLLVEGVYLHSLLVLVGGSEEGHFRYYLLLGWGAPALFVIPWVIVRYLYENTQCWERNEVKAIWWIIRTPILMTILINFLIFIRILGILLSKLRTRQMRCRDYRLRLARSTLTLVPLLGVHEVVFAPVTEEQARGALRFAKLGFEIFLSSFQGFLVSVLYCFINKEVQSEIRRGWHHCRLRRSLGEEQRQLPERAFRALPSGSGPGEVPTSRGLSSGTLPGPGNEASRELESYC

B1: g680 (peptide)
peptide: HGQGTFTSDYSKYLDSK([γGlu-Palmitoyl])RAEDFVEWLVAGG-NH2
modifications: N-terminus assumed
SMILES: CCCCCCCCCCCCCCCC(=O)N[C@@H](CCC(=O)NCCCC[C@H](NC(=O)[C@H](CO)NC(=O)[C@H](CC(=O)O)NC(=O)[C@H](CC(C)C)NC(=O)[C@H](Cc1ccc(O)cc1)NC(=O)[C@H](CCCCN)NC(=O)[C@H](CO)NC(=O)[C@H](Cc1ccc(O)cc1)NC(=O)[C@H](CC(=O)O)NC(=O)[C@H](CO)NC(=O)[C@@H](NC(=O)[C@H](Cc1ccccc1)NC(=O)[C@@H](NC(=O)CNC(=O)[C@H](CCC(N)=O)NC(=O)CNC(=O)[C@@H](N)Cc1c[nH]cn1)[C@@H](C)O)[C@@H](C)O)C(=O)N[C@@H](CCCNC(=N)N)C(=O)N[C@@H](C)C(=O)N[C@@H](CCC(=O)O)C(=O)N[C@@H](CC(=O)O)C(=O)N[C@@H](Cc1ccccc1)C(=O)N[C@H](C(=O)N[C@@H](CCC(=O)O)C(=O)N[C@@H](Cc1c[nH]c2ccccc12)C(=O)N[C@@H](CC(C)C)C(=O)N[C@H](C(=O)N[C@@H](C)C(=O)NCC(=O)NCC(N)=O)C(C)C)C(C)C)C(=O)O
B2: g639 (peptide)
peptide: HSEGTFTSDYSKYLDSK([γGlu-Palmitoyl])RAEDFVEWLVAGG-NH2
modifications: N-terminus assumed
SMILES: CCCCCCCCCCCCCCCC(=O)N[C@@H](CCC(=O)NCCCC[C@H](NC(=O)[C@H](CO)NC(=O)[C@H](CC(=O)O)NC(=O)[C@H](CC(C)C)NC(=O)[C@H](Cc1ccc(O)cc1)NC(=O)[C@H](CCCCN)NC(=O)[C@H](CO)NC(=O)[C@H](Cc1ccc(O)cc1)NC(=O)[C@H](CC(=O)O)NC(=O)[C@H](CO)NC(=O)[C@@H](NC(=O)[C@H](Cc1ccccc1)NC(=O)[C@@H](NC(=O)CNC(=O)[C@H](CCC(=O)O)NC(=O)[C@H](CO)NC(=O)[C@@H](N)Cc1c[nH]cn1)[C@@H](C)O)[C@@H](C)O)C(=O)N[C@@H](CCCNC(=N)N)C(=O)N[C@@H](C)C(=O)N[C@@H](CCC(=O)O)C(=O)N[C@@H](CC(=O)O)C(=O)N[C@@H](Cc1ccccc1)C(=O)N[C@H](C(=O)N[C@@H](CCC(=O)O)C(=O)N[C@@H](Cc1c[nH]c2ccccc12)C(=O)N[C@@H](CC(C)C)C(=O)N[C@H](C(=O)N[C@@H](C)C(=O)NCC(=O)NCC(N)=O)C(C)C)C(C)C)C(=O)O
B3: g776 (peptide)
peptide: HSQGTFTSDYSKYLDSK([γGlu-Palmitoyl])RARDFVEWLVAGG-NH2
modifications: N-terminus assumed
SMILES: CCCCCCCCCCCCCCCC(=O)N[C@@H](CCC(=O)NCCCC[C@H](NC(=O)[C@H](CO)NC(=O)[C@H](CC(=O)O)NC(=O)[C@H](CC(C)C)NC(=O)[C@H](Cc1ccc(O)cc1)NC(=O)[C@H](CCCCN)NC(=O)[C@H](CO)NC(=O)[C@H](Cc1ccc(O)cc1)NC(=O)[C@H](CC(=O)O)NC(=O)[C@H](CO)NC(=O)[C@@H](NC(=O)[C@H](Cc1ccccc1)NC(=O)[C@@H](NC(=O)CNC(=O)[C@H](CCC(N)=O)NC(=O)[C@H](CO)NC(=O)[C@@H](N)Cc1c[nH]cn1)[C@@H](C)O)[C@@H](C)O)C(=O)N[C@@H](CCCNC(=N)N)C(=O)N[C@@H](C)C(=O)N[C@@H](CCCNC(=N)N)C(=O)N[C@@H](CC(=O)O)C(=O)N[C@@H](Cc1ccccc1)C(=O)N[C@H](C(=O)N[C@@H](CCC(=O)O)C(=O)N[C@@H](Cc1c[nH]c2ccccc12)C(=O)N[C@@H](CC(C)C)C(=O)N[C@H](C(=O)N[C@@H](C)C(=O)NCC(=O)NCC(N)=O)C(C)C)C(C)C)C(=O)O
B4: g660 (peptide)
peptide: HGQGTFTSDYSKYLDSK([γGlu-Palmitoyl])RARDFVEWLVAGG-NH2
modifications: N-terminus assumed
SMILES: CCCCCCCCCCCCCCCC(=O)N[C@@H](CCC(=O)NCCCC[C@H](NC(=O)[C@H](CO)NC(=O)[C@H](CC(=O)O)NC(=O)[C@H](CC(C)C)NC(=O)[C@H](Cc1ccc(O)cc1)NC(=O)[C@H](CCCCN)NC(=O)[C@H](CO)NC(=O)[C@H](Cc1ccc(O)cc1)NC(=O)[C@H](CC(=O)O)NC(=O)[C@H](CO)NC(=O)[C@@H](NC(=O)[C@H](Cc1ccccc1)NC(=O)[C@@H](NC(=O)CNC(=O)[C@H](CCC(N)=O)NC(=O)CNC(=O)[C@@H](N)Cc1c[nH]cn1)[C@@H](C)O)[C@@H](C)O)C(=O)N[C@@H](CCCNC(=N)N)C(=O)N[C@@H](C)C(=O)N[C@@H](CCCNC(=N)N)C(=O)N[C@@H](CC(=O)O)C(=O)N[C@@H](Cc1ccccc1)C(=O)N[C@H](C(=O)N[C@@H](CCC(=O)O)C(=O)N[C@@H](Cc1c[nH]c2ccccc12)C(=O)N[C@@H](CC(C)C)C(=O)N[C@H](C(=O)N[C@@H](C)C(=O)NCC(=O)NCC(N)=O)C(C)C)C(C)C)C(=O)O
B5: g600 (peptide)
peptide: HSQGTFTSDYSKYLDSK([γGlu-Palmitoyl])RAQDFVEWLVAGG-NH2
modifications: N-terminus assumed
SMILES: CCCCCCCCCCCCCCCC(=O)N[C@@H](CCC(=O)NCCCC[C@H](NC(=O)[C@H](CO)NC(=O)[C@H](CC(=O)O)NC(=O)[C@H](CC(C)C)NC(=O)[C@H](Cc1ccc(O)cc1)NC(=O)[C@H](CCCCN)NC(=O)[C@H](CO)NC(=O)[C@H](Cc1ccc(O)cc1)NC(=O)[C@H](CC(=O)O)NC(=O)[C@H](CO)NC(=O)[C@@H](NC(=O)[C@H](Cc1ccccc1)NC(=O)[C@@H](NC(=O)CNC(=O)[C@H](CCC(N)=O)NC(=O)[C@H](CO)NC(=O)[C@@H](N)Cc1c[nH]cn1)[C@@H](C)O)[C@@H](C)O)C(=O)N[C@@H](CCCNC(=N)N)C(=O)N[C@@H](C)C(=O)N[C@@H](CCC(N)=O)C(=O)N[C@@H](CC(=O)O)C(=O)N[C@@H](Cc1ccccc1)C(=O)N[C@H](C(=O)N[C@@H](CCC(=O)O)C(=O)N[C@@H](Cc1c[nH]c2ccccc12)C(=O)N[C@@H](CC(C)C)C(=O)N[C@H](C(=O)N[C@@H](C)C(=O)NCC(=O)NCC(N)=O)C(C)C)C(C)C)C(=O)O
B6: g681 (peptide)
peptide: HGEGTFTSDYSKYLDSK([γGlu-Palmitoyl])RAEDFVEWLVAGG-NH2
modifications: N-terminus assumed
SMILES: CCCCCCCCCCCCCCCC(=O)N[C@@H](CCC(=O)NCCCC[C@H](NC(=O)[C@H](CO)NC(=O)[C@H](CC(=O)O)NC(=O)[C@H](CC(C)C)NC(=O)[C@H](Cc1ccc(O)cc1)NC(=O)[C@H](CCCCN)NC(=O)[C@H](CO)NC(=O)[C@H](Cc1ccc(O)cc1)NC(=O)[C@H](CC(=O)O)NC(=O)[C@H](CO)NC(=O)[C@@H](NC(=O)[C@H](Cc1ccccc1)NC(=O)[C@@H](NC(=O)CNC(=O)[C@H](CCC(=O)O)NC(=O)CNC(=O)[C@@H](N)Cc1c[nH]cn1)[C@@H](C)O)[C@@H](C)O)C(=O)N[C@@H](CCCNC(=N)N)C(=O)N[C@@H](C)C(=O)N[C@@H](CCC(=O)O)C(=O)N[C@@H](CC(=O)O)C(=O)N[C@@H](Cc1ccccc1)C(=O)N[C@H](C(=O)N[C@@H](CCC(=O)O)C(=O)N[C@@H](Cc1c[nH]c2ccccc12)C(=O)N[C@@H](CC(C)C)C(=O)N[C@H](C(=O)N[C@@H](C)C(=O)NCC(=O)NCC(N)=O)C(C)C)C(C)C)C(=O)O
B7: g835 (peptide)
peptide: HSQGTFTSDYSEYLDSK([γGlu-Palmitoyl])RARDFVEWLVAGG-NH2
modifications: N-terminus assumed
SMILES: CCCCCCCCCCCCCCCC(=O)N[C@@H](CCC(=O)NCCCC[C@H](NC(=O)[C@H](CO)NC(=O)[C@H](CC(=O)O)NC(=O)[C@H](CC(C)C)NC(=O)[C@H](Cc1ccc(O)cc1)NC(=O)[C@H](CCC(=O)O)NC(=O)[C@H](CO)NC(=O)[C@H](Cc1ccc(O)cc1)NC(=O)[C@H](CC(=O)O)NC(=O)[C@H](CO)NC(=O)[C@@H](NC(=O)[C@H](Cc1ccccc1)NC(=O)[C@@H](NC(=O)CNC(=O)[C@H](CCC(N)=O)NC(=O)[C@H](CO)NC(=O)[C@@H](N)Cc1c[nH]cn1)[C@@H](C)O)[C@@H](C)O)C(=O)N[C@@H](CCCNC(=N)N)C(=O)N[C@@H](C)C(=O)N[C@@H](CCCNC(=N)N)C(=O)N[C@@H](CC(=O)O)C(=O)N[C@@H](Cc1ccccc1)C(=O)N[C@H](C(=O)N[C@@H](CCC(=O)O)C(=O)N[C@@H](Cc1c[nH]c2ccccc12)C(=O)N[C@@H](CC(C)C)C(=O)N[C@H](C(=O)N[C@@H](C)C(=O)NCC(=O)NCC(N)=O)C(C)C)C(C)C)C(=O)O

“And” between values parts separate entries of the source, which are not always exact repeats. Equal values may be shown once. Numbered stars: 1 amine (or outer) side, 2 acyl side, 3 side chain; on linkers, the order of the positions; unused ones are H or OH. Side chains are listed from the residue outwards. Ends that are not written are not given here. * marks the point of attachment. γGlu = O=C(O)[C@H](CCC(=O)[*:2])N[*:1]; Palmitoyl = CCCCCCCCCCCCCCCC(=O)*

In the first experiment the target is human glucagon receptor (human, UniProt P47871 26-477). The experiment in a line: cell-based or functional assay.
human glucagon receptor, sequence (P47871 26-477): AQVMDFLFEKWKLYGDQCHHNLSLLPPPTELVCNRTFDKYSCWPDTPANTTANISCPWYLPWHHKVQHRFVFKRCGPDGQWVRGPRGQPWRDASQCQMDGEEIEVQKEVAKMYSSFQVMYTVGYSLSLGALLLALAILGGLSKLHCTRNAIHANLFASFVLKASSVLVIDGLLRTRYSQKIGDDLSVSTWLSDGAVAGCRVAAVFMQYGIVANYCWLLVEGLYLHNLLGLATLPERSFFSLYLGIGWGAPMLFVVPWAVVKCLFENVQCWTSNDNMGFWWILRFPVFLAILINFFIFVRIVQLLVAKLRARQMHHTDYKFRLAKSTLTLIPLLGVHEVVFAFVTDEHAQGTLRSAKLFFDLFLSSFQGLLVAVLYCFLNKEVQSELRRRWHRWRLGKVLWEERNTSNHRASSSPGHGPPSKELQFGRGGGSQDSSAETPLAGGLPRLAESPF
The molecule B1 showed a cAMP EC50 (assay 1) of 3.68 nM.

B2: the cAMP EC50 (assay 1) was 82.1 nM.

The molecule B3 yielded a cAMP EC50 (assay 1) of 0.00465 nM.

B4 displayed a cAMP EC50 (assay 1) of 1.52 nM.

B5: the cAMP EC50 (assay 1) stood at 0.00547 nM.

As to B6, the cAMP EC50 (assay 1) is 39.9 nM.

Molecule B7 displayed a cAMP EC50 (assay 1) of 0.424 nM.

The target of another experiment is human GLP-1 receptor (human, UniProt P43220 24-463). The experiment in a line: cell-based or functional assay.
human GLP-1 receptor, sequence (P43220 24-463): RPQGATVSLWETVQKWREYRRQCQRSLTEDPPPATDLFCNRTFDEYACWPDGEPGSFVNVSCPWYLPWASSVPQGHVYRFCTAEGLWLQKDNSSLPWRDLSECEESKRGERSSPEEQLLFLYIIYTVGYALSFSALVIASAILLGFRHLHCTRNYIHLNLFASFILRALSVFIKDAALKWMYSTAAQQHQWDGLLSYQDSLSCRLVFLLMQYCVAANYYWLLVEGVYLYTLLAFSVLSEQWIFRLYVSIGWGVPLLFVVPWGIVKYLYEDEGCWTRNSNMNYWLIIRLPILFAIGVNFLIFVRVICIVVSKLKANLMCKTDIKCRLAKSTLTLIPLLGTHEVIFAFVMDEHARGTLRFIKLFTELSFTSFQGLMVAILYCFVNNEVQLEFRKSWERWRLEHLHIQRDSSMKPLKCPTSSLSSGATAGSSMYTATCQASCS
The molecule B1 showed a cAMP EC50 (assay 1) of 0.195 nM.

Regarding B2, the cAMP EC50 (assay 1) stood at 0.244 nM.

For the molecule B3, the cAMP EC50 (assay 1) stood at 0.0702 nM.

Molecule B4 returned a cAMP EC50 (assay 1) of 1.06 nM.

B5: the cAMP EC50 (assay 1) was found to be 0.0666 nM.

B6 had a cAMP EC50 (assay 1) of 0.283 nM.

On to B7, for which the cAMP EC50 (assay 1) stood at 0.191 nM.

The target in another experiment is T1, human glucose-dependent insulinotropic peptide (gastric inhibitory polypeptide) receptor (human). The experiment in a line: cell-based or functional assay.
B1 returned a cAMP EC50 (assay 1) of 96.7 nM.

Regarding B2, the cAMP EC50 (assay 1) was 82.1 nM.

With B3, the cAMP EC50 (assay 1) came to 47.9 nM.

B4 had a cAMP EC50 (assay 1) of 332 nM.

For the molecule B5, the cAMP EC50 (assay 1) is 82.8 nM and 124 nM.

For B6, the cAMP EC50 (assay 1) came to 124 nM.

Turning to B7, the cAMP EC50 (assay 1) came out at 97.2 nM.
